In assay [1] the target is E. fergusonii BrxB WT (Escherichia fergusonii). In words: native MS; collected BrxB SEC peaks exchanged into 10 mM ammonium bicarbonate, 0.5 mg/ml, ES+-ToF MS (Xevo QToF).
Assay [2] has the same target. The assay is described as follows: SEC; analytical SEC of BrxB alone on Superdex 75 increase 10/300 GL, 10 μM, 20 mM Tris HCl pH 7.9, 150 mM NaCl; monomer and dimer.

The text below walks through data of publication doi:10.1101/2025.03.26.645558.

With E. fergusonii BrxB WT (natural protein), the stoichiometry N in assay [1] and in assay [2] was 2 in each case.
